Patent publication US20090297689A1

What was measured:
casein hydrolysate = test: cell-based or functional assay
sodium caseinate = test: cell-based or functional assay

## peptidyl arginine deiminase (PAD) of Fusarium graminearum CBS166.57, over-expressed in Aspergillus niger and purified (enzyme)
Casein hydrolysate
  arginine (amino acid analysis, 5 microliter PAD, 3 hours): 97.2%
  arginine (amino acid analysis, 50 microliter PAD, 3 hours): 86.1%
  arginine (amino acid analysis, 500 microliter PAD, 3 hours): 60.4%
  citrulline (amino acid analysis, 5 microliter PAD, 3 hours): 0.9%
  citrulline (amino acid analysis, 50 microliter PAD, 3 hours): 5%
  citrulline (amino acid analysis, 500 microliter PAD, 3 hours): 15.1%
  ornithine (amino acid analysis, 5 microliter PAD, 3 hours): 1.9%
  ornithine (amino acid analysis, 50 microliter PAD, 3 hours): 8.9%
  ornithine (amino acid analysis, 500 microliter PAD, 3 hours): 24.5%
Sodium caseinate
  arginine (amino acid analysis, 5 microliter PAD, 3 hours): 97.8%
  arginine (amino acid analysis, 50 microliter PAD, 3 hours): 86.5%
  arginine (amino acid analysis, 500 microliter PAD, 3 hours): 70.2%
  citrulline (amino acid analysis, 5 microliter PAD, 3 hours): 0.8%
  citrulline (amino acid analysis, 50 microliter PAD, 3 hours): 4.7%
  citrulline (amino acid analysis, 500 microliter PAD, 3 hours): 10.5%
  ornithine (amino acid analysis, 5 microliter PAD, 3 hours): 1.3%
  ornithine (amino acid analysis, 50 microliter PAD, 3 hours): 8.8%
  ornithine (amino acid analysis, 500 microliter PAD, 3 hours): 19.3%
